Measurements published in PMC9897555 (2023).

Target: Spike protein S1 C-terminal domain 319-674 (Severe acute respiratory syndrome …, UniProt P0DTC2)
Assay: flow

B1: LRRC15 (protein)
chain: YHGCPSECTCSRASQVECTGARIVAVPTPLPWNAMSLQILNTHITELNESPFLNISALIALRIEKNELSRITPGAFRNLGSLRYLSLANNKLQVLPIGLFQGLDSLESLLLSSNQLLQIQPAHFSQCSNLKELQLHGNHLEYIPDGAFDHLVGLTKLNLGKNSLTHISPRVFQHLGNLQVLRLYENRLTDIPMGTFDGLVNLQELALQQNQIGLLSPGLFHNNHNLQRLYLSNNHISQLPPSVFMQLPQLNRLTLFGNSLKELSPGIFGPMPNLRELWLYDNHISSLPDNVFSNLRQLQVLILSRNQISFISPGAFNGLTELRELSLHTNALQDLDGNVFRMLANLQNISLQNNRLRQLPGNIFANVNGLMAIQLQNNQLENLPLGIFDHLGKLCELRLYDNPWRCDSDILPLRNWLLLNQPRLGTDTVPVCFSPANVRGQSLIIINVNVAVPSVHVPEVPSYPETPWYPDTPSYPDTTSVSSTTELTSPVEDYTDLTTIQVTDDRSVWGMTQAQSG
- Kd: ~260 nM
